According to patent publication US12576029B2, “Noncompetitive receptor-targeted vaccine delivery to plasmacytoid dendritic cells” (Washington University, priority 2022, dated 2026):

Tested on: pDC
Test: pDC fraction after FLT3L injection in mice
Assay type: in vivo
Settings: after 7 days
Excerpt: Inbred mice and distribution of dendritic cells: BL/6, SV129 and […] inbred mouse lines were obtained from Jackson Laboratory (Bar Harbor, ME) The distribution of dendritic cells were examined using flow cytometry by using fluorochrome-conjugated monoclonal antibodies. Briefly, cells from spleen and liver were isolated from the mice and stained using fluorophore labeled antibodies. Cells were then fixed using 4% paraformaldehyde and analyzed by flow cytometry.
Further, the amount of pDC fraction was found inducible with injection of FMS-like tyrosine kinase 3 ligand in mice after 7 days (FIG. 2A-2B). Incubation of bone marrow differentiation culture with mouse transferrin for 7 days enhanced CD71 expression and pDC fraction (FIG. 2C-2D).

B1: FMS-like tyrosine kinase 3 ligand: FMS-like tyrosine kinase 3 ligand injected in mice to induce pDC fraction (protein, UniProt P49771 27-235, looked up)
Fms-related tyrosine kinase 3 …: TQDCSFQHSPISSDFAVKIRELSDYLLQDYPVTVASNLQDEELCGGLWRLVLAQRWMERLKTVAGSKMQGLLERVNTEIHFVTKCAFQPPPSCLRFVQTNISRLLQETSEQLVALKPWITRQNFSRCLELQCQPDSSTLPPPWSPRPLEATAPTAPQPPLLLLLLLPVGLLLLAAAWCLHWQRTRRRTPRPGEQVPPVPSPQDLLLVEH
With B1 as the molecule, how does the pDC fraction read?
The pDC fraction was “inducible”.

And the pDC fraction (listed as FLT3L)?
The pDC fraction was “inducible upregulation”.
